Several values for one entry are separate records, joined by “and”; a condition that tells them apart may be missing. Equal entries are not always repeated.
Legend:
[1] = target: refolded PD-1 protein (L25-R147) expressed in E. coli (Homo sapiens, UniProt Q15116); assay: SPR
[2] = target: recombinant human PD-1 extracellular domain (ECD) fusion protein (human, UniProt Q15116); assay: ELISA
[3] = target: human PD-1 on 293T cells stably transfected with human PD-1 (human, UniProt Q15116); assay: flow cytometry on cells
human PD-1 on 293T cells stably transfected with human PD-1, sequence (Q15116 25-288): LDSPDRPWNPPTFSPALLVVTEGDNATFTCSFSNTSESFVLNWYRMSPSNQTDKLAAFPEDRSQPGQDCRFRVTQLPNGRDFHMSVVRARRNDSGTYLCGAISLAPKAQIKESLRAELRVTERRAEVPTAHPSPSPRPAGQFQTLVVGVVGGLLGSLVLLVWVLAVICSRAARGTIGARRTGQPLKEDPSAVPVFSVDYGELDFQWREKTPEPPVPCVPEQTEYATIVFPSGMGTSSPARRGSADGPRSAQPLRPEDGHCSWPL

recombinant human PD-1 extracellular domain (ECD) fusion protein, sequence (Q15116 25-170): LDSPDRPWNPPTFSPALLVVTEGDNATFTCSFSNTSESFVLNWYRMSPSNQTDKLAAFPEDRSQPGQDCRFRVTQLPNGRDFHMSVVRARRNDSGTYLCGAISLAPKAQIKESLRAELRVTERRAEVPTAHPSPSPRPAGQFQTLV
refolded PD-1 protein (L25-R147) expressed in E. coli, sequence (Q15116 25-147): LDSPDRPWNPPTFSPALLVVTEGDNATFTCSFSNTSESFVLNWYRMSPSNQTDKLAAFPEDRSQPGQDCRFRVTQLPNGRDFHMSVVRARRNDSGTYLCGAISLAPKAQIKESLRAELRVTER

B1: toripalimab (antibody, V domains shown)
VH: QGQLVQSGAEVKKPGASVKVSCKASGYTFTDYEMHWVRQAPIHGLEWIGVIESETGGTAYNQKFKGRVTITADKSTSTAYMELSSLRSEDTAVYYCAREGITTVATTYYWYFDVWGQGTTVTVSS
VL: DVVMTQSPLSLPVTLGQPASISCRSSQSIVHSNGNTYLEWYLQKPGQSPQLLIYKVSNRFSGVPDRFSGSGSGTDFTLKISRVEAEDVGVYYCFQGSHVPLTFGQGTKLEIK
For B1, which Kd [1] is on record?
The Kd was 0.324 nM.

What about the IC50 [2] of the same binder?
Its IC50 is 0.8 nM and 1.3 nM.

And the IC50 [3]?
Its IC50 is 1.3 nM and 3.7 nM.
